Changes are numbered by the printed parent chain. Names may count otherwise. “Also recorded” adds a separate entry of the source.
Assays:
[1] = tested on: iRFP-EGFP^Y39TAG reporter in HEK293T cells; experiment: FFC test of importance of Y306A and Y384F for incorporation of bulky ncAAs, Example 3; type: cell-based
Method: These new PylRS variants as obtained from example 1 were tested in HEK293T cells utilizing a fluorescent reporter by fluorescent flow cytometry (FFC). The reporter contains an infrared fluorescent protein (iRFP) fused to enhanced green fluorescent protein (EGFP) which harbors an amber stop codon at position Y39 and is called iRFP-EGFP^Y39TAG. To analyze the incorporation efficiency for each new PylRS variant, transient transfection with different ncAAs and different amounts of ncAAs were performed.
The iRFP and EGFP signals were measured after 24 hours post transfection. Therefore, HEK293T cells were seeded in 24-well plate 16 hours prior to transfection. For the two-plasmid transfection, 1 μg of total DNA was used per well. The DNA was mixed with 50 μl of DMEM medium without Phenol Red and 3 μl of PEI were added. After 10 seconds of vortexing and a short centrifugation step, the DNA mixture was incubated 15 minutes in the hood, before it was added dropwise to the well. A master mix was prepared for all wells whenever suitable. After four hours of incubation, the medium was aspirated and fresh medium with different concentrations of ncAAs was added. The concentration of ncAA was 250 μM. After 20 hours of incubation, the iRFP and EGFP signal was analyzed with a flow cytometer analyzer (LSRFortessa™, BD Biosciences). Stock solutions for all ncAAs were prepared as described previously (Nikic, I., Kang, J. H., Girona, G. E., Aramburu, I. V. & Lemke, E. A. Labeling proteins on live mammalian cells using click chemistry. Nat. Protoc. 10, 780-791 (2015)).
To test, if the mutations Y306A and Y384F are really important for the incorporation of bulky ncAAs, these amino acids were changed back to their original amino acid residues by site directed mutagenesis in the case of the PylRS AF A1 variant.
The FFC test was with TCO*A, TCO-E and in addition with Boc using the variants PylRS A1, PylRS AF, PylRS AF A1 and PylRS MMA. PylRS MMA has the mutations 306M 309M 348A. FIG. 3 illustrates the data obtained by FFC in bar plots for the different ncAAs used. […] These bar plot illustrates on how much higher the incorporation efficiency is for each variant compared to PylRS AF.

[2] = tested on: iRFP-EGFP^Y39TAG reporter in HEK293T cells; experiment: Incorporation assay for cyclooctyne-lysine (SCO) by FFC, Example 4; type: cell-based; settings: ncAA SCO, 15.625 μM to 500 μM, FIG. 5
Method: To test the incorporation efficiency of another ncAA by the new variant PylRS A1, an incorporation assay was performed utilizing HEK293T cells. The cells were co-transfected with a plasmid containing NES-PylRS A1 containing as well the corresponding tRNA^Pyl gene together with the reporter plasmid pCI-iRFP-EGFP^Y39TAG-6His (SEQ ID NO: 97). Different concentrations of SCO were added to the growth medium 4 hours after the transfection of the cells ranging from 15.625 μM to 500 μM SCO. After 20 hours of incubation, the iRFP and EGFP signal was analyzed with a flow cytometer analyzer (LSRFortessa™, BD Biosciences) as mentioned above.

B1: PylRS A1: M. mazei PylRS mutant L309M, C348G, I405R without Y306A/Y384F (SEQ ID NO: 70) (protein)
chain: MDKKPLNTLISATGLWMSRTGTIHKIKHHEVSRSKIYIEMACGDHLVVNNSRSSRTARALRHHKYRKTCKRCRVSDEDLNKFLTKANEDQTSVKVKVVSAPTRTKKAMPKSVARAPKPLENTEAAQAQPSGSKFSPAIPVSTQESVSVPASVSTSISSISTGATASALVKGNTNPITSMSAPVQASAPALTKSQTDRLEVLLNPKDEISLNSGKPFRELESELLSRRKKDLQQIYAEERENYLGKLEREITRFFVDRGFLEIKSPILIPLEYIERMGIDNDTELSKQIFRVDKNFCLRPMLAPNLYNYMRKLDRALPDPIKIFEIGPCYRKESDGKEHLEEFTMLNFGQMGSGCTRENLESIITDFLNHLGIDFKIVGDSCMVYGDTLDVMHGDLELSSAVVGPRPLDREWGIDKPWIGAGFGLERLLKVKHDFKNIKRAARSESYYNGISTNL
[1]; TCO*A, TCO-E, Boc, HEK293T
  ability to incorporate bulky ncAAs: better synthetase for bulky ncAAs; also recorded: able to incorporate bulky ncAAs
[1]; ncAA Boc
  incorporation efficiency relative to PylRS AF: up to 4.5 ×
[1]; ncAA Boc, FIG. 3C
  incorporation efficiency (mean GFP/mean iRFP), ranking among variants: highest incorporation efficiency
[1]; ncAA TCO*A, FIG. 3B
  incorporation efficiency (mean GFP/mean iRFP), ranking among variants: best incorporation
[1]; ncAA TCO*A, independent of the ncAA concentration used
  incorporation efficiency relative to PylRS AF: 1.2 ×
[1]; ncAA TCO-E, FIG. 3A
  incorporation efficiency (mean GFP/mean iRFP), ranking among variants: highest incorporation efficiency
[1]; ncAA TCO-E, depending on the concentration used
  incorporation efficiency relative to PylRS AF: up to 30 times
[2]
  incorporation of SCO (EGFP signal by FFC): can incorporate SCO efficiently

B2: PylRS MMA: M. mazei PylRS mutant Y306M, L309M, C348A (SEQ ID NO: 72) (protein)
chain: B1 chain with Y306M, G348A, R405I
[1]; ncAA TCO-E
  incorporation efficiency relative to PylRS AF: up to 10 ×

B3: PylRS AF A1: PylRS AF variant with 309M, 348G, 405R (SEQ ID NO: 108) (protein)
chain: B1 chain with Y306A, Y384F
[1]; ncAA TCO-E, FIG. 3A
  incorporation efficiency (mean GFP/mean iRFP), ranking among variants: highest incorporation efficiency

Reference: patent US20250327057A1, “NOVEL AMINOACYL-TRNA SYNTHETASE VARIANTS FOR GENETIC CODE EXPANSION IN EUKARYOTES” (VERAXA Biotech GmbH, priority 2021, published 2025)
